From patent US20100011462A1, “FLAVIN MONOOXYGENASES AND TRANSCRIPTION FACTORS INVOLVED IN GLUCOSINOLATE BIOSYNTHESIS” (University of Copenhagen, priority 2006, published 2010) come the findings set out here.

This assay is described as follows: Activity of FMOs of the invention in E. coli or in seeds using a variety of substrates. The conditions noted are these: for S-oxygenation activity: desulfo and intact glucosinolates; for substrate specificity: methylthio glucosinolates in Arabidopsis. It counts as biochemical, Arabidopsis thaliana. An excerpt:
FIG. 11—Heterologous expression of At1g62560 in E. coli using 4MTB as substrate, with an empty vector as control.
FIG. 13—Heterologous expression of At1g62540 in E. coli using 4MTB as substrate, with an empty vector as control.
FIG. 15—Heterologous expression of At1g12140 in E. coli using desulfo-glucosinolates from glucosinolates from Arabidopsis Col-0 seeds as substrate mix.
FIG. 17—Heterologous expression of At1g62570 in E. coli using desulfo-glucosinolates from glucosinolates from Arabidopsis Col-0 seeds as substrate mix, with an empty vector as control.
FIGS. 11-18 show the activity of At1g62560, At1g65860, At1g62540, At1g12140 and At1g62570 in E. coli or in seeds using a variety of substrates.

B1: At1g12140: flavin-containing monooxygenase (FMO) from A. thaliana, SEQ ID NO 10 (protein, listed as Arabidopsis thaliana)
chain: MAPARTRVNSLNVAVIGAGAAGLVAARELRRENHTVVVFERDSKVGGLWVYTPNSEPDPLSLDPNRTIVHSSVYDSLRTNLPRECMGYRDFPFVPRPEDDESRDSRRYPSHREVLAYLEDFAREFKLVEMVRFKTEVVLVEPEDKKWRVQSKNSDGISKDEIFDAVVVCNGHYTEPRVAHVPGIDSWPGKQIHSHNYRVPDQFKDQVVVVIGNFASGADISRDITGVAKEVHIASRSNPSKTYSKLPGSNNLWLHSMIESVHEDGTIVFQNGKVVQADTIVHCTGYKYHFPFLNTNGYITVEDNCVGPLYEHVFPPALAPGLSFIGLPWMTLQFFMFELQSKWVAAALSGRVTLPSEEKMMEDVTAYYAKREAFGQPKRYTHRLGGGQVDYLNWIAEQIGAPPGEQWRYQEINGGYYRLATQSDTFRDKWDDDHLIVEAYEDFLRQKLISSLPSQLLES
B1: the S-oxygenation activity entry is on record as “S-oxygenation activity” and the substrate specificity entry is “mainly converts long-chain (especially octyl)methylthioalkyl-into methylsulfinyl glucosinolates”.

B2: At1g62570: flavin-containing monooxygenase (FMO) from A. thaliana, SEQ ID NO 6 (protein, listed as Arabidopsis thaliana)
chain: MAPAPSPINSQHVAVIGAGAAGLVAARELRREGHTVVVLDREKQVGGLWVYTPETESDELGLDPTRPIVHSSVYKSLRTNLPRECMGYKDFPFVPRGDDPSRDSRRYPSHREVLAYLQDFATEFNIEEMIRFETEVLRVEPVNGKWRVQSKTGGGFSNDEIYDAVVMCCGHFAEPNIAQIPGIESWPGRQTHSHSYRVPDPFKDEVVVVIGNFASGADISRDISKVAKEVHIASRASKSNTFEKRPVPNNNLWMHSEIDTAHEDGTIVFKNGKVVHADTIVHCTGYKYYFPFLETNNYMRVDDNRVEPLYKHIFPPALAPGLSFIGLPAMGLQFYMFEVQSKWVAAVLSGRVTLPSVDEMMDDLKLSYETQEALGIPKRYTHKLGKSQCEYLDWIADLCGFPHVEHWRDQEVTRGYQRLGNQPETFRDEWDDDDLMEEAYEDFARLNLINFHPSRFLESGR
With B2, the S-oxygenation activity result was “S-oxygenation activity” and the substrate specificity entry is recorded as “broad specificity towards all methylthio (MT) glucosinolates”.

B3: At1g62540: flavin-containing monooxygenase (FMO) from A. thaliana, SEQ ID NO 8 (protein, listed as Arabidopsis thaliana)
chain: MAPAQNPISSQHVVVIGAGAAGLVAARELSREGHTVVVLEREKEVGGLWIYSPKAESDPLSLDPTRSIVHSSVYESLRTNLPRECMGFTDFPFVPRFDDESRDSRRYPSHMEVLAYLQDFAREFNLEEMVRFEIEVVRVEPVNGKWRVWSKTSGGVSHDEIFDAVVVCSGHYTEPNVAHIPGIKSWPGKQIHSHNYRVPGPFENEVVVVIGNFASGADISRDIAKVAKEVHIASRASEFDTYEKLPVPRNNLWIHSEIDTAYEDGSIVFKNGKVVYADSIVYCTGYKYRFTFLETNGYMNIDENRVEHLYKHVFPPALSPGLSFVGLPSMGIQFVMFEIQSKWVAAVLSRRVTLPTEDKMMEDISAWYASLDAVGIPKRYTHKLGKIQSEYLNWVAEECGCPLVEHWRNQQIVRGYQRLVSHPETYRDEWDDNDLMEEAYEDFARKKLISFHPSHIL
As to B3, the S-oxygenation activity entry was “S-oxygenation activity” and the substrate specificity entry was “broad specificity towards all methylthio (MT) glucosinolates”.
